For test [1], the target named is T1, cynomolgus monkey C-KIT, full length, on CHO-K1 cells (cynomolgus monkey). In words: cell-based or functional assay.
The target of test [2] is T2, human C-KIT, full length, on cells (human, UniProt P10721 26-976). In words: cell-based or functional assay.
Test [3] addresses T3, human C-KIT-Fc (human, UniProt P10721 26-524).
T3 construct: also called biotinylated human C-KIT-Fc; not shown: Fc part not described
Description: HTRF epitope competition in solution; competitor IgG1-3M titrated against terbium-labelled h37M IgG1 on biotinylated human C-KIT-Fc. (In general: TR-FRET usually uses a lanthanide donor and a delayed reading to cut background.)

The target of test [4] is T4, cynomolgus monkey C-KIT-Fc (cynomolgus monkey).
T4 construct: also called cyno C-KIT-Fc
In words: HTRF epitope competition in solution; competitor IgG1-3M titrated against terbium-labelled h37M IgG1 on cyno C-KIT-Fc.

Test [5] concerns the target T2, human C-KIT, full length, on cells. Description: cell-based or functional assay. This is another data set of the same source.
The target of test [6] is T3, human C-KIT-Fc. Description: direct titration ELISA on coated C-KIT-Fc, IgG1 format.
Test [7] concerns the target T2, human C-KIT, full length, on cells. In words: flow cytometry, C-KIT-transfected CHO-K1 cells, IgG1 format. A general note: Flow cytometry measures light scatter and fluorescence of single cells or particles in a stream.
For test [8], the target named is T3, human C-KIT-Fc. In words: HTRF competition on human C-KIT-Fc against terbium-labelled h37M IgG1.
Test [9] deals with T3, human C-KIT-Fc. In words: HTRF competition vs Tb-h37M IgG1.
For test [10], the target named is T4, cynomolgus monkey C-KIT-Fc. In words: HTRF competition vs Tb-h37M IgG1.
Test [11] concerns the target T2, human C-KIT, full length, on cells. Description: flow cytometry, C-KIT-transfected CHO-K1 cells, IgG1 format. The source holds these as a separate data set.
The target is the same in test [12]. Described as above. The source holds these as a separate data set.
The target of test [13] is T1, cynomolgus monkey C-KIT, full length, …. The description is as above.
The target in test [14] is T3, human C-KIT-Fc. In words: HTRF competition vs Tb-h37M IgG1. This is another data set of the same source.
The target in test [15] is T4, cynomolgus monkey C-KIT-Fc. In words: HTRF competition vs Tb-h37M IgG1. This is another data set of the same source.
In test [16] the target is T4, cynomolgus monkey C-KIT-Fc. Description: direct titration ELISA on coated C-KIT-Fc, IgG1 format.
Test [17] addresses T3, human C-KIT-Fc. Description: HTRF epitope competition in solution; unlabelled h37M IgG1-3M titrated against terbium-labelled h37M IgG1 on biotinylated human C-KIT-Fc.

Substitutions are numbered along the chain they refer to. In names and notes the source's numbering stands. Where two headings read alike, the source gives them in different places.

Broadly, the IC50 is the concentration that inhibits the measured activity by half. In general, EC50 (read off the curve) refers to the concentration at which the effect is half-maximal.

B1: MH1, IgG1-3M format (antibody, V domains shown)
VH: QVQLVQSGAEVKKPGASVKVSCKASGYTFTDYYMNWVRQAPGQGLEWMGRIYPGSGNTYYAQKFQGRVTMTRDTSTSTVYMELSSLRSEDTAVYYCARGVYYYDYWGQGTLVTVSS
VL: DIQMTQSPSSLSASVGDRVTITCRASQGIRTNLAWFQQKPGKAPKSLIYAASSLQSGVPSRFSGSGSGTDFTLTISSLQPEDFATYYCQQYNSYPRTFGGGTKVEIK
notes: human IgG1 with L234A/L235A/G237A; also called C-KIT-MH1
B1: in [1], the “Cyno C-KIT CHO FabZAP IC50 (pM)” value stood at 14 pM. Moreover, in test [2], the “Human C-KIT CHO FabZAP IC50 (pM)” value was 8.7 pM, the “TF-1 FabZAP IC50 (pM)” value turned out to be 51.1 pM and the “TF-1 proliferation IC50” value came to 2.86 nM. Besides, the “IC50 (read off the curve)” value with human C-KIT-Fc [3] is roughly 0.01 µg/mL. Besides, the “IC50 (read off the curve)” value in [4] is roughly 0.02 µg/mL. In test [5], the “TF-1 proliferation, fold less potent than h37M” value turned out to be 26.5 fold.

B2: MH5-DI, IgG1-3M format (antibody, V domains shown)
VH: B1 VH
VL: B1 VL with N92A, S93N
As for B2, the “Cyno C-KIT CHO FabZAP IC50 (pM)” value in test [1] worked out at 13.5 pM. In [2], the “Human C-KIT CHO FabZAP IC50 (pM)” value turned out to be 12.6 pM, the “TF-1 FabZAP IC50 (pM)” value amounted to 53.7 pM and the “TF-1 proliferation IC50” value was determined as 26.3 nM. The “TF-1 proliferation, fold less potent than h37M” value in [5] is 244 fold.

B3: MH5.4 (antibody, IgG1, V domains shown)
VH: B1 VH with Y32H, S55T, Y101W, Y103F, Y105S
VL: B1 VL with N92A, S93N
notes: IgG1
For the molecule B3, the binding result in the test with human C-KIT-Fc [6] is recorded as “binds”.

B4: MH12 (antibody, IgG1, V domains shown)
VH: B1 VH
VL: B1 VL with I29V
notes: IgG1
For the molecule B4, the binding result (in [7]; with human C-KIT-Fc [8]) was “binds” each time.

B5: MH5.23 (antibody, IgG1, V domains shown)
VH: B1 VH with Y32F, G54A, Y101W, Y103F, Y105S
VL: B1 VL with N92A, S93N
notes: IgG1; also called C-KIT-MH5.23
For B5, the IC50 was determined as 2.02 µg/mL with human C-KIT-Fc [9] and 3.26 µg/mL in test [10]. Moreover, in test [11], the “EC50 (read off the curve)” value was roughly 200 ng/mL.

B6: MH5, IgG1-3M format (antibody, V domains shown)
VH: B1 VH
VL: B1 VL with A50S, N92A, S93N
notes: human IgG1 with L234A/L235A/G237A
In the case of B6, the “IC50 (read off the curve)” value was roughly 0.03 µg/mL with human C-KIT-Fc [3] and roughly 0.02 µg/mL in test [4].

B7: MH13 (antibody, IgG1, V domains shown)
VH: B1 VH
VL: B1 VL with I29V, S93A
notes: IgG1
As for B7, the binding result (in [7]; in the test with human C-KIT-Fc [8]) was “binds” in each case.

B8: MH2 (antibody, IgG1, V domains shown)
VH: B1 VH
VL: B1 VL with A50S, N92A
notes: IgG1
Regarding B8, the binding result (in [12]; in the test with human C-KIT-Fc [8]) was “binds” in each case.

B9: MH5.2 (antibody, IgG1, V domains shown)
VH: B1 VH with Y32F, S55T, Y101W
VL: B1 VL with N92A, S93N
notes: IgG1; also called C-KIT-MH5.2
As for B9, the “EC50 (read off the curve)” value in test [13] and in [11] was roughly 200 ng/mL in each case. For the same molecule, the results for the IC50 (in the test with human C-KIT-Fc [9]; in [10]) were 0.272 µg/mL and 0.254 µg/mL, respectively.

B10: MH5.10 (antibody, IgG1, V domains shown)
VH: B1 VH with Y32H, S55A, Y101W, Y103F, Y105E
VL: B1 VL with N92A, S93N
notes: IgG1
For B10, the binding result with human C-KIT-Fc [6] is listed as “binds”.

B11: MH8 (antibody, IgG1, V domains shown)
VH: B1 VH
VL: B1 VL with A50S, N92S
notes: IgG1
Regarding B11, the binding result (in [7]; in the test with human C-KIT-Fc [8]) was “binds” in each case.

B12: MH5.1 (antibody, IgG1, V domains shown)
VH: B1 VH with D31N, S55T, Y101W
VL: B1 VL with N92A, S93N
notes: IgG1; also called C-KIT-MH5.1
As to B12, the 50% effective concentration (EC50 (read off the curve)) in test [13] and in test [11] was roughly 200 ng/mL in each case. Also, the IC50 in the test with human C-KIT-Fc [9] was found to be 0.684 µg/mL; in [10] it was 0.633 µg/mL.

B13: MH10 (antibody, IgG1, V domains shown)
VH: B1 VH
VL: B1 VL with A50S, N92T
notes: IgG1
On to B13, for which the binding result (in [7]; with human C-KIT-Fc [8]) was “binds” in each case.

B14: MH11 (antibody, IgG1, V domains shown)
VH: B1 VH
VL: B1 VL with S93A
notes: IgG1; also called C-KIT-MH11
As for B14, the IC50 with human C-KIT-Fc [14] was determined as 0.051 µg/mL; in [15], 0.101 µg/mL.

B15: F-F2 (antibody, IgG1, V domains shown)
VH: B1 VH with Y103Q
VL: B1 VL with I29V, L33V, L54R
notes: IgG1; also called C-KIT-F-F2
With B15, the IC50 with human C-KIT-Fc [14] was determined as 0.046 µg/mL; in [15], 0.121 µg/mL.

B16: MH3 (antibody, IgG1, V domains shown)
VH: B1 VH
VL: B1 VL with A50S, S93A
notes: IgG1
B16: the binding result (in test [12]; with human C-KIT-Fc [8]) was “binds” each time.

B17: MH5.24 (antibody, IgG1, V domains shown)
VH: B1 VH with Y32F, G54A, Y101W, Y103F, Y105T
VL: B1 VL with N92A, S93N
notes: IgG1; also called C-KIT-MH5.24
As to B17, the “EC50 (read off the curve)” value in [13] and in test [11] was roughly 200 ng/mL each time. Besides, the IC50 was 2.2 µg/mL with human C-KIT-Fc [9] and 2.74 µg/mL in test [10].

B18: MH5.15 (antibody, IgG1, V domains shown)
VH: B1 VH with Y32F, S55T, Y101W, Y103F, Y105S
VL: B1 VL with N92A, S93N
notes: IgG1
In the case of B18, the binding result with human C-KIT-Fc [6] is on record as “binds”.

B19: MH5.35 (antibody, IgG1, V domains shown)
VH: B1 VH with D31N, G54A, Y101W, Y103F, Y105T
VL: B1 VL with N92A, S93N
notes: IgG1; also called C-KIT-MH5.35
As for B19, the “EC50 (read off the curve)” value in test [13] is roughly 200 ng/mL; in test [11] it was roughly 100 ng/mL. Besides, the IC50 is 2.05 µg/mL with human C-KIT-Fc [9] and 0.785 µg/mL in [10].

B20: MH5.34 (antibody, IgG1, V domains shown)
VH: B1 VH with D31N, G54A, Y101W, Y103F, Y105S
VL: B1 VL with N92A, S93N
notes: IgG1; also called C-KIT-MH5.34
In the case of B20, the concentration giving a half-maximal response (EC50 (read off the curve)) in test [13] and in test [11] was roughly 200 ng/mL in each case. Further, the IC50 in the test with human C-KIT-Fc [9] was 0.839 µg/mL; in [10], 0.532 µg/mL.

B21: MH5.6 (antibody, IgG1, V domains shown)
VH: B1 VH with Y32H, S55T, Y101W, Y103F, Y105E
VL: B1 VL with N92A, S93N
notes: IgG1
As for B21, the binding result with human C-KIT-Fc [6] is recorded as “binds”.

B22: chimeric anti-C-KIT antibody m37M, human IgG1 (antibody, V domains shown)
VH: QVQLKQSGAELVRPGASVKLSCKASGYTFTDYYINWVKQRPGQGLEWIARIYPGSGNTYYNEKFKGKATLTAEKSSSTAYMQLSSLTSEDSAVYFCARGVYYFDYWGQGTTLTVSS
VL: DIVMTQSQKFMSTSVGDRVSVTCKASQNVRTNVAWYQQKPGQSPKALIYSASYRYSGVPDRFTGSGSGTDFTLTISNVQSEDLADYFCQQYNSYPRTFGGGTKLEIKR
For B22, the concentration giving a half-maximal response (EC50 (read off the curve)) in test [13] is roughly 200 ng/mL; in test [16], roughly 0.1 µg/mL; in [11], roughly 200 ng/mL.

B23: h37M-IgG1-3M (antibody, V domains shown)
VH: QVQLVQSGAEVKKPGASVKLSCKASGYTFTDYYINWVRQAPGKGLEWIARIYPGSGNTYYNEKFKGRATLTADKSTSTAYMQLSSLRSEDTAVYFCARGVYYFDYWGQGTTVTVSS
VL: DIVMTQSPSSLSASVGDRVTITCKASQNVRTNVAWYQQKPGKAPKALIYSASYRYSGVPDRFTGSGSGTDFTLTISSLQPEDFADYFCQQYNSYPRTFGGGTKVEIK
notes: human IgG1 with L234A/L235A/G237A; also called C-KIT-h37M
With B23, the “IC50 (read off the curve)” value in the test with human C-KIT-Fc [17] is roughly 0.01 µg/mL.

(Values after patent publication US20200283521A1 (GRANULAR THERAPEUTICS, published 2020).)
